# Measurements as given in publication PMC10421103, “Efficiency Assessment between Entrapment and Covalent Bond Immobilization of Mutant β-Xylosidase onto Chitosan Support” (Polymers, 2023).
# B1: XynB2^Y509E (Geobacillus stearothermophilus; Y509E) (protein)
# chain: MATNLFFNAHHSPVGAFASFTLGFPGKSGGLDLELARPPRQNVFIGVESPHEPGLYHILPFAETAGEDESKRYDIENPDPNPQKPNILIPFAKERIEREFRVATDTWKAGDLTLTIYSPVKAVPDPETASEEELKLALVPAVIVEMTIDNTNGTRTRRAFFGFEGTDPYTSMRRIDDTCPQLRGVGQGRILGIASKDEGVRSALHFSMEDILTATLEENWTFGLGKVGALIADVPAGEKKTYQFAVCFYRGGCVTAGMDASYFYTRFFHNIEEVGLYALEQAEVLKEQAFRSNELIEKEWLSDDQKFMMAHAIRSYYGNTQLLEHEGKPIWVVNEGEYRMMNTFDLTVDQLFFELKMNPWTVKNVLDFYVERYSYEDRVRFPGDETEYPGGISFTHDMGVANTFSRPHYSSYELYGISGCFSHMTHEQLVNWVLCAAVYIEQTKDWAWRDRRLTILEQCLESMVRRDHPDPEKRNGVMGLDSTRTMGGAEITTYDSLDVSLGQARNNLELAGKCWAAYVALEKLFRDVGKEELAALAREQAEKCAATIVSHVTEDGYIPAVMGEGNDSKIIPAIEGLVFPYFTNCHEALREDGRFGDYIRALRQHLQYVLREGICLFPDGGWKISSTSNNSWLSKIYLCQFIARRILGWEWDEQGKRADAAHVAWLTHPTLSIWSWSDQIIAGEISGSKYYPRGVTSILWLEEGE
# notes: recombinant in E. coli C43 from plasmid pJAVI100 (xynB2 with Y509E); partially purified by heat treatment 45 °C and dialysis; GH52
# Substrate: O=[N+]([O-])c1ccc(O[C@@H]2OC[C@@H](O)[C@H](O)[C@H]2O)cc1
# Assay: purified protein
# Assay type: biochemical, Geobacillus stearothermophilus
# Conditions: free enzyme, partially purified, 200 mM citrate-phosphate-glycine buffer pH 6.5, 50 °C, 0.22–2.00 mM substrate
protein,measurement,value
B1,Km,900 ± 100 µM
same,Vmax,0.0011 µmol/min
